Results taken from PMC4834570.

Molecular target: A1-tagged Gal-1 (galectin-1) (UniProt P09382)
Test: FRET or BRET; in vitro sensitized acceptor emission FRET titration; 100 nM ATTO-488-labelled Gal-1 titrated with 100 nM to 1000 nM DY-547-labelled C-Raf-RBD; 25 mM HEPES, 100 mM NaCl, 3 mM MgCl2, 3 mM DTT, pH 7.2

“A1-tagged C-Raf-RBD (from UniProt P04049 56-131) (domain or fragment)” was tested, and the Kd was 106 nM.
